B1: TOR1AIP2 (parent)
chain: YTSSQKVSPIQIDGAGRTWQDSDT
B2: ISL2 (parent)
chain: HYPFLGAMGDHSKKKPGTAMCVGC

Variants of: B1
Experiment: protein stability index of a GFP-peptide fusion (GPS, HEK-293T) (PSI 1-6); higher = more stable
Conditions: c terminus: a fixed tail appended
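Note: lentivirally expressed fusions sorted by FACS into six bins by GFP to DsRed ratio, PSI derived from sequencing read proportions per bin multiplied by bin number.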

Row | Variant | protein stability index
1 | Q20W | 2.01
2 | Q20I | 2.42
3 | Q20T | 3.03
4 | Q20E | 4.31
5 | Q20G | 3.08
6 | Q20S | 3.69
7 | Q20P | 2.69
8 | Q20A | 3.43
9 | Q20F | 2.62
10 | Q20K | 3.16
11 | Q20Y | 2.84
12 | Q20D | 3.79
13 | Q20L | 2.58
14 | Q20M | 2.75
15 | Q20H | 2.71
16 | Q20C | 3.34
17 | Q20V | 3.54
18 | Q20N | 4.09
19 | Q20R | 2.62
20 | S22A | 4.18
21 | S22K | 2.95
22 | S22V | 3.17
23 | S22N | 3.55

Row | Variant | protein stability index
24 | S22R | 3.29
25 | S22H | 3.06
26 | S22E | 4.08
27 | S22I | 3.12
28 | S22P | 3.67
29 | S22W | 2.85
30 | S22T | 3.63
31 | S22Q | 3.64
32 | S22M | 2.18
33 | S22D | 4.55
34 | S22F | 2.71
35 | S22C | 3.18
36 | S22Y | 2.51
37 | S22L | 2.35
38 | S22G | 2.74
39 | D23T | 2.17
40 | D23N | 3.41
41 | D23A | 3.06
42 | D23R | 2.48
43 | D23H | 2.16
44 | D23M | 2.06
45 | D23W | 1.55
46 | D23K | 2.55

Row | Variant | protein stability index
47 | D23I | 1.44
48 | D23G | 2.72
49 | D23P | 2.64
50 | D23Y | 2.81
51 | D23Q | 3.41
52 | D23C | 2.83
53 | D23F | 2.04
54 | D23S | 2.73
55 | W19S | 4.76
56 | W19T | 4.35
57 | W19V | 4.56
58 | W19Y | 4.08
59 | D21L | 2.46
60 | D21F | 2.33
61 | D21Q | 2.45
62 | D21S | 2.95
63 | D21T | 2.62
64 | D21E | 3.27
65 | D21Y | 2.43
66 | D21H | 2.34
67 | D21N | 3.29
68 | D21V | 2.39
69 | D21I | 2.71

Row | Variant | protein stability index
70 | D21A | 2.73
71 | D21G | 2.62
72 | D21P | 2.81
73 | D21M | 2.36
74 | D21K | 3.46
75 | D21R | 2.6
76 | D21C | 2.85
77 | T24H | 3.51
78 | T24N | 3.15
79 | T24A | 3.08
80 | T24V | 2.86
81 | T24Q | 2.63
82 | T24S | 3.85
83 | T24Y | 2.17
84 | T24M | 2.58
85 | T24C | 3.52
86 | T24E | 5
87 | T24P | 3.55
88 | T24K | 3.29
89 | T24R | 2.95
90 | T24W | 2.87
91 | T24D | 4.12

Variants of: B2
Experiment: as above
Conditions: c terminus: a fixed tail appended

Row | Variant | protein stability index
92 | Y2I | 2.79
93 | Y2W | 2.16
94 | Y2V | 2.6
95 | Y2F | 2.55
96 | Y2S | 3.33
97 | Y2K | 2.83
98 | Y2R | 2.94
99 | Y2C | 2.53
100 | Y2T | 4.07
101 | Y2A | 3.43
102 | Y2H | 2.48
103 | Y2L | 3.37
104 | Y2G | 3.54
105 | Y2Q | 3.04
106 | Y2D | 4.76
107 | Y2E | 3.62
108 | Y2M | 2.97
109 | Y2P | 3.58
110 | Y2N | 4.08
111 | F4T | 3.19
112 | F4M | 3.48
113 | F4D | 3.83
114 | F4A | 3.75
115 | F4G | 3.25
116 | F4W | 3.02

Row | Variant | protein stability index
117 | F4V | 3.3
118 | F4R | 2.89
119 | F4K | 2.92
120 | F4H | 3.73
121 | F4S | 3.48
122 | F4E | 4.72
123 | F4L | 2.51
124 | F4Q | 3.58
125 | F4Y | 2.21
126 | F4N | 3.38
127 | F4P | 3.34
128 | F4I | 3.03
129 | F4C | 3.27
130 | G9H | 3.05
131 | G9P | 2.96
132 | G9A | 3.37
133 | G9C | 3.51
134 | G9D | 2.85
135 | G9F | 1.7
136 | G9S | 2.65
137 | G9L | 2.4
138 | G9E | 3.58
139 | G9R | 2.19
140 | G9Y | 2.31
141 | G9N | 2.58

Row | Variant | protein stability index
142 | G9I | 1.95
143 | G9W | 1.86
144 | G9K | 2.52
145 | G9T | 2.82
146 | G9V | 2.09
147 | G9Q | 2.77
148 | G9M | 2.65
149 | A7D | 3.68
150 | A7W | 1.95
151 | A7K | 2.86
152 | A7G | 2.99
153 | A7L | 2.45
154 | A7C | 3.85
155 | A7Y | 1.84
156 | A7E | 3.79
157 | A7S | 2.74
158 | A7M | 2.31
159 | A7I | 1.9
160 | A7P | 2.6
161 | A7H | 2.45
162 | A7T | 2.93
163 | A7N | 3.6
164 | A7R | 2.31
165 | A7V | 2.37
166 | A7F | 1.79

Row | Variant | protein stability index
167 | A7Q | 3.22
168 | H1L | 2.01
169 | H1I | 1.95
170 | H1Q | 2.92
171 | H1K | 2.62
172 | H1N | 3.84
173 | H1E | 2.05
174 | H1S | 2.58
175 | H1R | 2.7
176 | H1C | 2.11
177 | H1T | 2.69
178 | H1G | 2.64
179 | H1D | 3.15
180 | H1W | 2.59
181 | H1Y | 1.99
182 | H1F | 2.02
183 | H1P | 2.75
184 | H1M | 1.82
185 | H1A | 3.6
186 | H1V | 2.11
187 | G6F | 1.86
188 | G6V | 1.93
189 | G6H | 2.46
190 | G6C | 3.15
191 | G6P | 2.83

Row | Variant | protein stability index
192 | G6D | 3.2
193 | G6S | 2.32
194 | G6E | 3.16
195 | G6K | 2.92
196 | G6M | 2.07
197 | G6L | 2.07
198 | G6R | 2.13
199 | G6T | 2.81
200 | G6Q | 2.81
201 | G6I | 2.27
202 | G6N | 2.54
203 | G6A | 3.07
204 | G6Y | 2.49
205 | G6W | 1.75
206 | D10W | 1.64
207 | D10Y | 1.56
208 | D10P | 2.35
209 | D10E | 3.69
210 | D10K | 1.88
211 | D10M | 1.79
212 | D10I | 2.2
213 | D10V | 1.7
214 | D10H | 2.52
215 | D10L | 2.39
216 | D10R | 2.07

Row | Variant | protein stability index
217 | D10A | 2.39
218 | D10T | 2.37
219 | D10N | 2.07
220 | D10F | 1.81
221 | D10S | 2.86
222 | D10G | 2.18
223 | D10Q | 1.78
224 | D10C | 2.6
225 | K13M | 2.31
226 | K13N | 2.79
227 | K13F | 2.34
228 | K13A | 2.15
229 | K13P | 2.84
230 | K13D | 3.18
231 | K13R | 1.8
232 | K13G | 2.65
233 | K13L | 2.23
234 | K13I | 2.04
235 | K13C | 3.8
236 | K13H | 3.04
237 | K13Q | 2.69
238 | K13E | 3.07
239 | K13S | 2.64
240 | S12R | 2.72
241 | S12Y | 2.48

Row | Variant | protein stability index
242 | S12A | 2.53
243 | S12G | 2.56
244 | S12P | 2.27
245 | S12M | 1.92
246 | S12W | 2.52
247 | S12E | 3.03
248 | S12H | 2.73
249 | S12I | 1.8
250 | S12N | 2.92
251 | S12V | 2.58
252 | S12D | 3.26
253 | S12K | 2.56
254 | S12L | 1.99
255 | S12T | 2.59
256 | S12Q | 3.07
257 | S12F | 2.08
258 | S12C | 3.95
259 | M8F | 2.55
260 | M8H | 2.8
261 | M8V | 2.96
262 | M8G | 3.85
263 | M8Y | 2.51
264 | M8I | 2.3
265 | M8D | 3.52
266 | M8W | 2.17

Row | Variant | protein stability index
267 | M8P | 3.07
268 | M8T | 2.82
269 | M8E | 3.81
270 | M8Q | 3.16
271 | M8N | 2.94
272 | M8R | 3.19
273 | M8C | 3.33
274 | M8S | 2.52
275 | M8K | 3
276 | M8A | 4.25
277 | M8L | 3.55
278 | H11W | 1.93
279 | H11R | 2.92
280 | H11M | 2.74
281 | H11A | 2.69
282 | H11N | 2.92
283 | H11V | 2.39
284 | H11I | 2.33
285 | H11Y | 1.99
286 | H11T | 2.45
287 | H11E | 3.44
288 | H11Q | 3.25
289 | H11S | 2.35
290 | H11D | 3.5
291 | H11K | 2.9

Row | Variant | protein stability index
292 | H11C | 2.64
293 | H11P | 3.16
294 | H11L | 2.21
295 | H11F | 2.19
296 | H11G | 2.81
297 | L5N | 2.49
298 | L5G | 3.5
299 | L5Y | 2.2
300 | L5E | 3.78
301 | L5P | 3.13
302 | L5I | 3.14
303 | L5S | 3.1
304 | L5K | 2.47
305 | L5F | 3.19
306 | L5A | 3.15
307 | L5R | 2.66
308 | L5D | 3.75
309 | L5H | 2.96
310 | L5C | 3.56
311 | L5Q | 3.16
312 | L5V | 2.63
313 | L5T | 2.96
314 | L5M | 3.01
315 | L5W | 2.23
316 | P3R | 2.35

Row | Variant | protein stability index
317 | P3S | 2.27
318 | P3W | 1.76
319 | P3N | 2.5
320 | P3D | 1.96
321 | P3F | 1.93
322 | P3I | 2.26
323 | P3H | 2.31
324 | P3T | 2.04
325 | P3C | 2.84
326 | P3Y | 1.69
327 | P3M | 2.18
328 | P3V | 2.06
329 | P3Q | 3.11
330 | P3K | 2.15
331 | P3A | 2.32
332 | P3G | 3.08
333 | P3E | 3.04
334 | P3L | 1.77

Reference: the supplement of paper PMC10567573
